Test results from patent USRE49583E1, “Inducible expression systems” (priority 2005, dated 2023).
“Also recorded” adds a separate entry of the source.

System: chromosomally integrated CMV-7tetO luciferase reporter in HeLa X1/6 cells
Assay: rtTA activity assay, HeLa X1/6 cells with integrated CMV-7tetO luciferase reporter (Example 1, FIG. 2-3, 5, 14, 15)
Type: cell-based
Details: for basal / background activity in the absence of inducer: no dox or other effector; for rtTA activation by minocycline (Mc): 0-10000 ng/ml Mc
From the text: To test whether this rtTA optimization reflects a specific adaptation to the viral LTR-2ΔtetO promoter, we assayed rtTA activity with a reporter gene construct in which luciferase expression is under the control of a minimal CMV promoter coupled to an array of seven tetO elements. […] Thus, the observed mutations in rtTA are not virus-specific adaptations, but are general improvements of the Tet-on system. We also assayed rtTA activity in HeLa X1/6 cells that contain chromosomally integrated copies of the CMV-7tetO luciferase reporter construct (FIG. 2C). In these cells, the evolved rtTAs show a similar pattern of activity as with episomal reporter gene constructs in C33A cells. Thus, these mutations improve rtTA activity independent of the type of promoter and the episomal or chromosomal status of the target gene.
The V10 variant needs only 44 ng/ml dox to reach this activity level, which reflects a 23-fold higher dox-sensitivity than the wild-type rtTA.
rtTA activity assay. Two firefly luciferase reporter constructs with different promoter configurations were used. pLTR-2ΔtetO-luc contains the LTR-2ΔtetO promoter derived from the HIV-rtTA molecular clone (Marzio et al. 2001; Marzio et al. 2002). pCMV-7tetO-luc, previously named pUHC13-3 (Gossen et al. 1992), contains seven tetO elements located upstream of a minimal CMV promoter. The plasmid pRL-CMV (PROMEGA®, Madison, Wis., USA), in which the expression of Renilla luciferase is controlled by the CMV promoter, was used as an internal control to allow correction for differences in transfection efficiency.
C33A and HeLa X1/6 cells were grown in 2-cm^2 wells to 60% confluency and transfected by the calcium phosphate precipitation method (Das et al. 1999). C33A cells were transfected with 0.4 ng pCMV-rtTA (wild-type or mutant), 20 ng pLTR-2ΔtetO-luc or pCMV-7tetO-luc, 0.5 ng pRL-CMV, and 980 ng pBluescript as carrier DNA. HeLa X1/6 cells were transfected with 8 ng pCMV-rtTA, 2.5 ng pRL-CMV, and 990 ng pBluescript. The amount of the DNA constructs was optimized for each cell type to keep rtTA-mediated transactivation within the linear range and to avoid squelching of transcription factors. Cells were cultured for 48 hours in the presence of different concentrations of dox, Tc or Mc, and lysed in Passive Lysis Buffer (PROMEGA®). Firefly and Renilla luciferase activities were determined with the dual-luciferase reporter assay (PROMEGA®). The activity of the rtTA variants was calculated as the ratio of the firefly and Renilla luciferase activities, and corrected for between-session variation.
FIG. 2. Novel rtTA variants show increased activity and dox-sensitivity in different Tet systems. The transcriptional activity of rtTA variants was measured in C33A cells transfected with a plasmid carrying the firefly luciferase reporter gene under the control of the viral LTR-2ΔtetO promoter (LTR-2ΔtetO; A) or under the control of a minimal CMV-derived promoter coupled to seven tetO elements (CMV7-tetO; B). Furthermore, rtTA activity was measured in HeLa X1/6 cells (Baron et al. 1997) that contain a chromosomally integrated copy of the CMV-7tetO reporter construct (CMV7tetO-integrated; C, D). Variants V1 to V10 were compared in all three Tet systems (panels A-C) and variants V11 to V18 in the cells with the integrated reporter (panel D). Cells were transfected with the indicated rtTA expression plasmid or pBluescript as a negative control, and a plasmid constitutively expressing Renilla luciferase to correct for differences in transfection efficiency. Cells were cultured in the presence of different dox concentrations (0-1000 ng/ml). The ratio of the firefly and Renilla luciferase activities measured 2 days after transfection reflects the rtTA activity. All values were related to the wild-type (wt) rtTA activity at 1000 ng/ml dox, which was arbitrarily set at 100%. In (C and D), average values of three transfections are shown with error bars indicating the standard deviation.
FIG. 3. […]

Row | Molecule | basal / background activity in the absence of inducer | further results
1 | V9I F67S C68R G138D F86Y: rtTA variant with these amino acid substitutions (protein) MSRLDKSKIINSALELLNGVGIEGLTTRKLAQKLGVEQPTLYWHVKNKRALLDALPIEMLDRHHTHSRPLEGESWQDFLRNNAKSYRCALLSHRDGAKVHLGTRPTEKQYETLENQLAFLCQQGFSLENALYALSAVDHFTLGCVLEEQEHQVAKEERETPTTDSMPPLLRQAIELFDRQGAEPAFLFGLELIICGLEKQLKCESGGPADALDDFDLDMLPADALDDFDLDMLPADALDDFDLDMLPG | no or low basal activity | –
2 | E37Q F67S F86Y A209T: rtTA variant with these amino acid substitutions (protein) MSRLDKSKVINSALELLNGVGIEGLTTRKLAQKLGVQQPTLYWHVKNKRALLDALPIEMLDRHHTHSCPLEGESWQDFLRNNAKSYRCALLSHRDGAKVHLGTRPTEKQYETLENQLAFLCQQGFSLENALYALSAVGHFTLGCVLEEQEHQVAKEERETPTTDSMPPLLRQAIELFDRQGAEPAFLFGLELIICGLEKQLKCESGGPTDALDDFDLDMLPADALDDFDLDMLPADALDDFDLDMLPG | no or low basal activity | rtTA activation by minocycline (Mc) (listed as F67S E37Q F86Y A209T): particularly sensitive for minocycline; also recorded: very sensitive for minocycline; basal / background activity in the absence of inducer (listed as F67S E37Q F86Y A209T): low background activity
3 | V9I F67S G138D F86Y: rtTA variant with these amino acid substitutions (protein) MSRLDKSKIINSALELLNGVGIEGLTTRKLAQKLGVEQPTLYWHVKNKRALLDALPIEMLDRHHTHSCPLEGESWQDFLRNNAKSYRCALLSHRDGAKVHLGTRPTEKQYETLENQLAFLCQQGFSLENALYALSAVDHFTLGCVLEEQEHQVAKEERETPTTDSMPPLLRQAIELFDRQGAEPAFLFGLELIICGLEKQLKCESGGPADALDDFDLDMLPADALDDFDLDMLPADALDDFDLDMLPG | no or low basal activity | –
4 | V9I F67S R171K F86Y: rtTA variant with these amino acid substitutions (protein) MSRLDKSKIINSALELLNGVGIEGLTTRKLAQKLGVEQPTLYWHVKNKRALLDALPIEMLDRHHTHSCPLEGESWQDFLRNNAKSYRCALLSHRDGAKVHLGTRPTEKQYETLENQLAFLCQQGFSLENALYALSAVGHFTLGCVLEEQEHQVAKEERETPTTDSMPPLLKQAIELFDRQGAEPAFLFGLELIICGLEKQLKCESGGPADALDDFDLDMLPADALDDFDLDMLPADALDDFDLDMLPG | no or low basal activity | –
5 | V9I C68R G138D F86Y: rtTA variant with these amino acid substitutions (protein) MSRLDKSKIINSALELLNGVGIEGLTTRKLAQKLGVEQPTLYWHVKNKRALLDALPIEMLDRHHTHFRPLEGESWQDFLRNNAKSYRCALLSHRDGAKVHLGTRPTEKQYETLENQLAFLCQQGFSLENALYALSAVDHFTLGCVLEEQEHQVAKEERETPTTDSMPPLLRQAIELFDRQGAEPAFLFGLELIICGLEKQLKCESGGPADALDDFDLDMLPADALDDFDLDMLPADALDDFDLDMLPG | no or low basal activity | –
6 | V9I F67S E157K F86Y: rtTA variant with these amino acid substitutions (protein) MSRLDKSKIINSALELLNGVGIEGLTTRKLAQKLGVEQPTLYWHVKNKRALLDALPIEMLDRHHTHSCPLEGESWQDFLRNNAKSYRCALLSHRDGAKVHLGTRPTEKQYETLENQLAFLCQQGFSLENALYALSAVGHFTLGCVLEEQEHQVAKEKRETPTTDSMPPLLRQAIELFDRQGAEPAFLFGLELIICGLEKQLKCESGGPADALDDFDLDMLPADALDDFDLDMLPADALDDFDLDMLPG | no or low basal activity | –
7 | E37Q F67S F86Y: rtTA variant with these amino acid substitutions (protein) MSRLDKSKVINSALELLNGVGIEGLTTRKLAQKLGVQQPTLYWHVKNKRALLDALPIEMLDRHHTHSCPLEGESWQDFLRNNAKSYRCALLSHRDGAKVHLGTRPTEKQYETLENQLAFLCQQGFSLENALYALSAVGHFTLGCVLEEQEHQVAKEERETPTTDSMPPLLRQAIELFDRQGAEPAFLFGLELIICGLEKQLKCESGGPADALDDFDLDMLPADALDDFDLDMLPADALDDFDLDMLPG | no or low basal activity | –
8 | V9I F67S C68R G138D F86Y A209T: rtTA variant with these amino acid substitutions (protein) MSRLDKSKIINSALELLNGVGIEGLTTRKLAQKLGVEQPTLYWHVKNKRALLDALPIEMLDRHHTHSRPLEGESWQDFLRNNAKSYRCALLSHRDGAKVHLGTRPTEKQYETLENQLAFLCQQGFSLENALYALSAVDHFTLGCVLEEQEHQVAKEERETPTTDSMPPLLRQAIELFDRQGAEPAFLFGLELIICGLEKQLKCESGGPTDALDDFDLDMLPADALDDFDLDMLPADALDDFDLDMLPG | no or low basal activity | rtTA activation by minocycline (Mc): particularly sensitive for minocycline; rtTA activation by tetracycline (Tc) (0-10000 ng/ml Tc): particularly sensitive for tetracycline
